In patent publication US20240141038A1 (SHANGHAI QILU PHARMACEUTICAL RESEARCH AND DEVELOPMENT CENTRE, published 2024):
Numbering of substitutions follows the chain as printed. Read-outs that look alike come from different tables or passages of the source. Blank lines part the entries; values can stand above or below the molecule they belong to.

Columns and labels:
[1] = target: cynomolgus monkey NKp46 (full length, on cells) (cynomolgus monkey) (UniProt Q95JB9); test: flow cytometry on cynomolgus monkey NKp46-CHOK1 cells
Sequence of cynomolgus monkey NKp46 (full length, on cells) (cynomolgus monkey) (Q95JB9 22-306): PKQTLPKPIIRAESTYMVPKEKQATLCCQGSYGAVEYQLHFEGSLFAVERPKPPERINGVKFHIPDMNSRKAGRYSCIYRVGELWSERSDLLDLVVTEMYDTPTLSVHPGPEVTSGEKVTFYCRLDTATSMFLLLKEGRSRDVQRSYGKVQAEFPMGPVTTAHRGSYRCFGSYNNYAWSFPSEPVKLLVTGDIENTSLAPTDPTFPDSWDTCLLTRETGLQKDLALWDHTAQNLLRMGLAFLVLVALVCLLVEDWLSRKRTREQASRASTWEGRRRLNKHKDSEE

[2] = target: cynomolgus monkey NKp46 (full length, on cells) (cynomolgus monkey) (UniProt Q95JB9); test: as above; remark: listed apart in the source
[3] = target: T1, human NKp46 (full length, on cells) (human, UniProt O76036 22-304); test: flow cytometry on human NKp46-CHOK1 cells
T1 sequence (O76036 22-304 Q82K): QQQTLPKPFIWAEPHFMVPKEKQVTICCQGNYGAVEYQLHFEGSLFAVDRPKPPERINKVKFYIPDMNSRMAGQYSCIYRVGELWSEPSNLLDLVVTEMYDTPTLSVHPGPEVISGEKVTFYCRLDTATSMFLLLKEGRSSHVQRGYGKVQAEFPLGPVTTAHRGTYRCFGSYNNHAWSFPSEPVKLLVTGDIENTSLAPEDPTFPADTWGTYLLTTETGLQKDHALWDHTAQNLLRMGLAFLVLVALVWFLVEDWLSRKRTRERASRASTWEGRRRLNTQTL
Method: (§1) The stable human NKp46-CHOK1 and cynomolgus monkey NKp46-CHOK1 cell lines obtained in Example 2 were cultured, the cells were digested with 0.25% pancreatic enzyme EDTA for about 5 minutes, and the digestion was terminated with the complete medium. After centrifugation at 1,500 rpm for 5 minutes, the supernatant was discarded, the precipitated cells were resuspended with PBS containing 1% BSA and counted. The cell density was adjusted to 1E6/mL and seeded in a corning-3799 96-well culture plate at 100 μL/well. Aftering centrifuging at 1,500 rpm for 5 minutes, the supernatant was discarded and the precipitate was set aside at 4° C. The antibody solutions were prepared with PBS containing 1% BSA, wherein the antibody solution has an initial concentration was 100 nM, then diluted in 10-fold to obtain 7 gradients: 10⁻⁴ nM, 10⁻³ nM, 10⁻² nM, 10⁻¹ nM, […], and 10² nM. The prepared antibody solutions were used to resuspend the cells, 100 μL/well. The resuspended cell culture plates were incubated in a 4° C. freezer for 1 h. After centrifugation at 1500 rpm for 5 minutes, the supernatant was discarded. The precipitate was washed with 160 μL of PBS containing 1% BSA, the supernatant was discarded, and the cells were stored for later use.
(§2) The Secondary antibody (goat anti human IgG Fc PE) solution was prepared with PBS containing 1% BSA, and diluted 1:200. The cells were resuspended with the prepared secondary antibody solution, 100 μL/well, incubated in a 4° C. freezer for 0.5 h. After centrifugation at 1,500 rpm for 5 minutes, the supernatant was discarded, the precipitated cells were washed with 160 μL of PBS containing 1% BSA, the supernatant was discarded, the cells were resuspended with 100 μL of PBS containing 1% BSA, and filtered in 300-mesh gauze. The mean fluorescence intensity of antibody binding to cells was then analyzed on a flow cytometer. The FCS file was exported from the flow cytometer, the mean fluorescence intensity (hereinafter referred to as MFI) of PE channel was analyzed with Flowjo software, and the mean fluorescence intensity obtained was introduced into the Graphpad to analyze the half binding concentration (hereinafter referred to as EC₅₀) and the top mean fluorescence intensity (Top MFI) of the antibody and the cell.

[4] = target: T2, Cynomolgus monkey NKp46 for immunization, screening, and testing (Kactus, NKP-CM146) (cynomolgus monkey, UniProt Q95JB9 22-254); test: SPR (Biacore 8K), antibody captured on anti-human Fc, NKp46 as analyte, 1:1 fit
T2 construct: Bought protein; also called monkey NKp46 antigen protein; cynomolgus monkey NKp46 antigen
T2 sequence (Q95JB9 other isoform, or with tags, fused parts or gaps limits assumed): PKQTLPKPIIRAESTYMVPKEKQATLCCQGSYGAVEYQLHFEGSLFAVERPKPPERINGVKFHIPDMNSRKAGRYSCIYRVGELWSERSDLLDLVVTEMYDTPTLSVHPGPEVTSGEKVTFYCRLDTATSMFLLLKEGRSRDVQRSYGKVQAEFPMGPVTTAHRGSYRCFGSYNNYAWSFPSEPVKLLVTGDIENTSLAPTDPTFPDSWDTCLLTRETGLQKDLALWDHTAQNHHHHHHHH
Method: Cynomolgus monkey NKp46 was diluted in two-fold to a serial concentration (400 nM-3.125 nM), combined for 90 s at a flow rate of 50 μL/min and dissociated for 500 s.
(§3) At the end of each round of experiments, 3 M MgCl₂ solution was used to rinse at a flow rate of 30 μL/min for 30 s, and the captured antibody was removed along with the antigen to complete the regeneration of the chip. The raw data were analyzed using Biacore Insight Evaluation Software (version 3.0.12.15655) software and (1:1) Langmuir model was fit to the data. Compared with the anti-NKp46 humanized antibody and the corresponding chimeric antibody, the affinity to the human NKp46 antigen protein is mostly maintained.

[5] = target: T3, cynomolgus monkey NKp46 (full length, on cells) (cynomolgus monkey, UniProt Q95JB9 22-306); test: flow cytometry on cynomolgus monkey NKp46-CHOK1 cells
T3 construct: also called cynomolgus monkey NKp46-CHOK1; cynomolgus NKp46-CHOK1
T3 sequence (Q95JB9 22-306): as the sequence (Q95JB9 22-306) above
Method: as §1, §2

[6] = target: T1, human NKp46 (full length, on cells); test: cell-based or functional assay
[7] = target: T4, Human NKp46 antigen for immunization, screening, and testing (Kactus, NKP-HM146) (human, UniProt O76036 22-255); test: SPR (Biacore 8K), antibody captured on anti-human Fc, NKp46 as analyte, 1:1 fit
T4 construct: Bought protein; also called human NKp46 antigen protein; human NKp46 protein
T4 sequence (O76036 other isoform, or with tags, fused parts or gaps limits assumed): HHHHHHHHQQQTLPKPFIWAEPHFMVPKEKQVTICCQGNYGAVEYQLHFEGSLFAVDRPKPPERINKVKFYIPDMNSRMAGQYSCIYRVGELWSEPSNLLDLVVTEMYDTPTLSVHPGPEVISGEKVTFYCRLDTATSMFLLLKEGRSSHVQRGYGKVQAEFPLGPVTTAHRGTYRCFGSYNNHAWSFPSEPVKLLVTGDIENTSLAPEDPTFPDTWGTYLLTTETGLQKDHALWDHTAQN
Method: Human NKp46 was diluted in two-fold to a serial concentration (400 nM-3.125 nM), then combined for 90 s at a flow rate of 50 μL/min, and dissociated for 500 s.
as §3

Molecule: Anti-HEL human IgG1 LALA (Biointron, Cat. number B109802) (antibody)
- Top MFI [1]: 86
- Top MFI [2]: 118
- Top MFI [3]: 223
- Top MFI ([3]; record 2): 98

B3: H1-PC11 humanized antibody (antibody, human IgG1, V domains shown)
VH: EVQLVESGGGLVQPGGSLRLSCAASPYSANSFSMAWFRQAPGKGLEGVACIQAESGSTNVAPSVKGRFTISQDNSKNTLYLQMNSLRAEDTAVYYCAAFKRNVGGCELRPEHWRFWGQGTLVTVSS
notes: not shown: constant region of human IgG1
- Kd [4]: 115000 pM
- koff [4]: 0.00589 s⁻¹
- kon [4]: 51300 M⁻¹ s⁻¹
- EC50 [5]: 345 pM
- Top MFI [5]: 3260
- EC50 of NK cell activation (CD107a-positive NK cells, plate-coated antibody) [6]: 850 pM
- Top mean fluorescence intensity (Top MFI), NK cell activation (CD107a) [6]: 21
- EC50 [3]: 389 pM
- Top MFI [3]: 6710
- Kd [7]: 6050 pM
- koff [7]: 0.000307 s⁻¹
- kon [7]: 50800 M⁻¹ s⁻¹

B4: H2-PC11 humanized antibody (antibody, human IgG1, V domains shown)
VH: B3 VH with A24P, V48I
notes: as for B3
- EC50 [5]: 301 pM
- Top MFI [5]: 3540
- EC50 of NK cell activation (CD107a-positive NK cells, plate-coated antibody) [6]: 870 pM
- Top mean fluorescence intensity (Top MFI), NK cell activation (CD107a) [6]: 18.8
- EC50 [3]: 363 pM
- Top MFI [3]: 6940
- Kd [7]: 2050 pM
- koff [7]: 0.000126 s⁻¹
- kon [7]: 61300 M⁻¹ s⁻¹

B6: H2-PA31 humanized antibody (antibody, human IgG1, V domains shown)
VH: EVQLVESGGGLVQPGGSLRLSCAVSGRTFSRLPMGWFRQAPGKGLEFVAAISWSSSTTYYADSVKGRFTISRDNSKNTAYLQMNSLRAEDTAVYYCAAVGGSLDYSATVVYTAARAYADWGQGTLVTVSS
notes: as for B3
- Kd [4]: 7690 pM
- koff [4]: 0.000596 s⁻¹
- kon [4]: 77500 M⁻¹ s⁻¹
- EC50 [5]: 2110 pM
- Top MFI [5]: 3270
- EC50 of NK cell activation (CD107a-positive NK cells, plate-coated antibody) [6]: 630 pM
- Top mean fluorescence intensity (Top MFI), NK cell activation (CD107a) [6]: 35.3
- EC50 [3]: 203 pM
- Top MFI [3]: 5940
- Kd [7]: 10900 pM
- koff [7]: 0.000959 s⁻¹
- kon [7]: 87800 M⁻¹ s⁻¹

B7: H4-PA31 humanized antibody (antibody, human IgG1, V domains shown)
VH: B6 VH with G44D, L45R
notes: as for B3
- EC50 [5]: 1300 pM
- Top MFI [5]: 3340
- EC50 of NK cell activation (CD107a-positive NK cells, plate-coated antibody) [6]: 380 pM
- Top mean fluorescence intensity (Top MFI), NK cell activation (CD107a) [6]: 34.1
- EC50 [3]: 162 pM
- Top MFI [3]: 5950
- Kd [7]: 5890 pM
- koff [7]: 0.00103 s⁻¹
- kon [7]: 175000 M⁻¹ s⁻¹

B8: H4-PA45 humanized antibody (antibody, V domains shown)
VH: EVQLVESGGGLVQPGGSLRLSCAASGRTFSRLPMAWFRQAPGKDREFVAAISWSGGSTYYADSMKGRFTISRDNSKNTAYLQMNSLRAEDTAVYYCAAVGDSAPYSATIVYTDARAYAYWGQGTLVTVSS
notes: as for B3
- EC50 [5]: 1530 pM
- Top MFI [5]: 3400
- EC50 of NK cell activation (CD107a-positive NK cells, plate-coated antibody) [6]: 400 pM
- Top mean fluorescence intensity (Top MFI), NK cell activation (CD107a) [6]: 37.6
- EC50 [3]: 205 pM
- Top MFI [3]: 5760
- Kd [7]: 21900 pM
- koff [7]: 0.00204 s⁻¹
- kon [7]: 93000 M⁻¹ s⁻¹

B9: H2-PA45 humanized antibody (antibody, V domains shown)
VH: B8 VH with D44G, R45L
notes: as for B3
- Kd [4]: 7340 pM
- koff [4]: 0.000563 s⁻¹
- kon [4]: 76700 M⁻¹ s⁻¹
- EC50 [5]: 2760 pM
- Top MFI [5]: 3590
- EC50 of NK cell activation (CD107a-positive NK cells, plate-coated antibody) [6]: 750 pM
- Top mean fluorescence intensity (Top MFI), NK cell activation (CD107a) [6]: 39.1
- EC50 [3]: 274 pM
- Top MFI [3]: 5610
- Kd [7]: 24100 pM
- koff [7]: 0.00154 s⁻¹
- kon [7]: 63800 M⁻¹ s⁻¹

Further lines, results first:

- Kd [4]: 23400 pM
- koff [4]: 0.0059 s⁻¹
- kon [4]: 252000 M⁻¹ s⁻¹
- EC50 [5]: 69 pM
- Top MFI [5]: 3800
- EC50 of NK cell activation (CD107a-positive NK cells, plate-coated antibody) [6]: > 20000 pM
- Top mean fluorescence intensity (Top MFI), NK cell activation (CD107a) [6]: 14.1
- EC50 [3]: 153 pM
- Top MFI [3]: 6940
- Kd [7]: 22100 pM
- koff [7]: 0.00216 s⁻¹
- kon [7]: 97700 M⁻¹ s⁻¹
B1: H2-PA27 humanized antibody (antibody, human IgG1, V domains shown)
VH: QVQLVESGGGVVQPGRSLRLSCAASGRTESWYRMGWFRQAPGKGLEVVARISGDTNIKYYAGSVKGRFTISRDNSKNTLYLQMSSLRAEDTAVYYCAADRTGATWDYWGQGTLVTVSS
notes: as for B3

- EC50 [5]: 74 pM
- Top MFI [5]: 3880
- EC50 of NK cell activation (CD107a-positive NK cells, plate-coated antibody) [6]: 10700 pM
- Top mean fluorescence intensity (Top MFI), NK cell activation (CD107a) [6]: 18.1
- EC50 [3]: 145 pM
- Top MFI [3]: 6650
- Kd [7]: 23700 pM
- koff [7]: 0.00266 s⁻¹
- kon [7]: 112000 M⁻¹ s⁻¹
B2: H4-PA27 humanized antibody (antibody, human IgG1, V domains shown)
VH: B1 VH with Q1D, L45R
notes: as for B3

- EC50 [5]: 297 pM
- Top MFI [5]: 3280
- EC50 of NK cell activation (CD107a-positive NK cells, plate-coated antibody) [6]: 1210 pM
- Top mean fluorescence intensity (Top MFI), NK cell activation (CD107a) [6]: 19.6
- EC50 [3]: 328 pM
- Top MFI [3]: 6830
- Kd [7]: 1140 pM
- koff [7]: 7.75e-05 s⁻¹
- kon [7]: 67800 M⁻¹ s⁻¹
B5: H3-PC11 humanized antibody (antibody, human IgG1, V domains shown)
VH: B3 VH with L45R
notes: as for B3
